Reference: patent publication US20240181022A1, “AMURINS LYSINS, AND LYSIN-ANTIMICROBIAL PEPTIDE (AMP) CONSTRUCTS ACTIVE AGAINST GRAM-NEGATIVE BACTERIA” (priority 2021, published 2024)
Converted amounts (≈) assume the structure as drawn. Where two headings read alike, the source gives them in different places.

Legend:
[1] = test system: A. ruhlandii; assay: MIC by broth microdilution against A. ruhlandii; type: cell-based, Achromobacter ruhlandii; settings: A. ruhlandii isolates
Method: (§1) MIC values were determined using a modification of the standard broth microdilution reference method defined by the Clinical and Laboratory Standards Institute (CLSI), CLSL. 2015. Methods for Dilution Antimicrobial Susceptibility Tests for Bacteria That Grow Aerobically; Approved Standard-10th Edition. Clinical and Laboratory Standards Institute, Wayne, PA. The modification was based on the replacement of Mueller Hinton Broth with either CAA media (with and without NaCl) or CAA supplemented with 2.5% human serum. MIC is the minimum concentration of peptide sufficient to suppress at least 80% of the bacterial growth compared to control.
(§2) Based on these nine most prevalent strains, direct lytic agents, including GN370, AM1, AM2, and AM3, were evaluated against various isolates from each of the 9 strains. MICs and MBECs (Example 3) were determined, and a sputum inhibition test was conducted, as described below in Example 5.
(§3) The MICs for were determined as described below using the broth microdilution method for meropenem, GN370, AM1, AM2, and AM3. The results are shown below in Tables 8-12.

[2] = test system: B. cenocepacia; assay: MIC by broth microdilution against B. cenocepacia; type: cell-based, Burkholderia cenocepacia; design: MIC Range: unit not given beside the values
Method: as §1, §2, §3

[3] = test system: B. gladioli; assay: MIC by broth microdilution against B. gladioli; type: cell-based, Burkholderia gladioli; settings: B. gladioli isolates
Method: as §1, §2, §3

[4] = test system: B. multivorans; assay: MIC by broth microdilution against B. multivorans; type: cell-based, Burkholderia multivorans; settings: B. multivorans isolates
Method: as §1, §2, §3

[5] = test system: P. apista; assay: MIC by broth microdilution against P. apista; type: cell-based, Pandoraea apista
Method: as §1, §2, §3

[6] = test system: P. aeruginosa; assay: Time-kill assay in cystic fibrosis patient sputum, P. aeruginosa; type: cell-based, Pseudomonas aeruginosa
Description: Sputum from 5 cystic fibrosis patients was pooled. The resulting mixture was not filtered, as it was very dense and not amenable to sterilization by filtration. Sputum is known to be a complex mixture of DNA, carbohydrates, and lipids ([…], 2016). As used herein, the term “sputum” refers to the mucus present in the respiratory tract of an animal, such as a human. Sputum may increase in thickness due to the irritation or infection, including bacterial infection, and in some instances, may be expelled by the animal while coughing. In certain instances, cystic fibrosis may be characterized by the presence of a thick, sticky mucus or sputum present in the lungs of cystic fibrosis patients. The activity of GN370, AM1, AM2, AM3, and meropenem was determined in the sputum using a time-kill assay format as disclosed in Zhang et al., Antimicrobial peptide therapeutics for cystic fibrosis, Antimicrobial Agents Chemother. 2005; 49(7):2921-2927. […] Untreated controls were included in addition to pretreatment plating (t=0) for a baseline CFU determination. Activity was also determined in the absence of sputum for comparison to activity observed in the presence of sputum.

[7] = test system: P. aeruginosa; assay: Serial passage resistance development study, P. aeruginosa; type: cell-based, Pseudomonas aeruginosa
[8] = test system: S. maltophilia; assay: Serial passage resistance development study, S. maltophilia; type: cell-based, Stenotrophomonas maltophilia; settings: S. maltophilia, day 28, triplicate
[9] = test system: A. dolens; type: cell-based, Achromobacter dolens; settings: A. dolens (15); 2-hour treatment
Method: The MBEC (after 2-hour treatments) was determined as described in Jones and Wozniak, PsI Produced by Mucoid Pseudomonas aeruginosa Contributes to the Establishment of Biofilms and Immune Evasion, Am. Soc. Microbiol. 2017, 8(3):e00864-17. Meropenem and tobramycin were included as controls and were both poorly active, with MBEC90 values of >256 μg/mL (data not shown).

[10] = test system: P. aeruginosa
[11] = Burkholderia cenocepacia, N 15 (Table 26)
[12] = Pandoraea apista, N 11 (Table 26)
[13] = P. aeruginosa (28), 2-hour treatment

Molecule `C[C@@H](O)[C@H]1C(=O)N2C(C(=O)O)=C(S[C@@H]3CN[C@H](C(=O)N(C)C)C3)[C@H](C)[C@H]12` [meropenem, reference compound] has an MIC50 [1] of 16 µg/mL (≈ 41.7 µM), an MIC90 [1] greater than 32 µg/mL and an MIC50 ([2]; B. cenocepacia isolates) of 4 µg/mL (≈ 10.4 µM). The MIC90 ([2]; B. cenocepacia isolates) was 8 µg/mL (≈ 20.9 µM), the “MIC Range” value ([2]; B. cenocepacia isolates) was 2-32 and the MIC50 [3] was 1 µg/mL (≈ 2.61 µM). It also gave an MIC90 [3] of 2 µg/mL (≈ 5.22 µM), an MIC50 [4] of 8 µg/mL (≈ 20.9 µM) and an MIC90 [4] of 32 µg/mL (≈ 83.4 µM). It also gave an MIC50 ([5]; P. apista isolates) greater than 32 µg/mL, an MIC90 ([5]; P. apista isolates) greater than 32 µg/mL and an MIC Range ([5]; P. apista isolates) greater than 32 µg/mL. The “activity in the presence and absence of sputum” value [6] was “poorly active”, the “Log10 CFU/mL of sputum” value ([6]; absence of sputum, 1 hr) was 5.38 Log10 CFU/mL of sputum and the “Log10 CFU/mL of sputum” value ([6]; absence of sputum, 3 hr) was 4.98 Log10 CFU/mL of sputum. For the same molecule, the “Log10 CFU/mL of sputum” value ([6]; absence of sputum, 24 hr) was 6.38 Log10 CFU/mL of sputum, the “Log10 CFU/mL of sputum” value ([6]; presence of 10% sputum, 1 hr) was 5.26 Log10 CFU/mL of sputum and the “Log10 CFU/mL of sputum” value ([6]; presence of 10% sputum, 3 hr) was 4.78 Log10 CFU/mL of sputum. For the same molecule, the “Log10 CFU/mL of sputum” value ([6]; presence of 10% sputum, 24 hr) was 6.6 Log10 CFU/mL of sputum.

B1: GN370: lysin-AMP construct, SEQ ID NO: 149: MIDR, FIRL and NPTH moieties N-terminal to GN202 lysin (protein)
chain: MIDRFIRLNPTHGPRRPRRPGRRAPVRTSQRGIDLIKSFEGLRLSAYQDSVGVWTIGYGTTRGVTRYMTITVEQAERMLSNDIQRFEPELDRLAKVPLNQNQWDALMSFVYNLGAANLASSTLLDLLNKGDYQGAADQFPHWVNAGGKRLDGLVKRRAAERALFLEPLS
modifications: GN370 lysin
Work on B1 yielded an MIC50 [1] of 2 µg/mL, an MIC90 [1] greater than 32 µg/mL and an MIC50 ([2]; B. cenocepacia isolates) greater than 32 µg/mL. For the same molecule, the MIC90 ([2]; B. cenocepacia isolates) was greater than 32 µg/mL, the MIC50 [2, 11] was greater than 64 µg/mL and the MIC90 [2, 11] was greater than 64 µg/mL. The MIC50 [3] was greater than 32 µg/mL, the MIC90 [3] was greater than 32 µg/mL and the MIC50 [4] was 16 µg/mL. For the same molecule, the MIC90 [4] was greater than 32 µg/mL, the MIC50 ([5]; P. apista isolates) was greater than 32 µg/mL and the MIC90 ([5]; P. apista isolates) was greater than 32 µg/mL. For the same molecule, the MIC50 [5, 12] was greater than 64 µg/mL, the MIC90 [5, 12] was greater than 64 µg/mL and the “MIC Range” value [5, 12] was greater than 64 µg/mL. The “effect of sputum on antibacterial activity” value ([6]; 10% CF sputum vs no sputum) was “not inhibited”, the “Log10 CFU/mL of sputum” value ([6]; absence of sputum, 1 hr) was 2.3 Log10 CFU/mL of sputum and the “Log10 CFU/mL of sputum” value ([6]; absence of sputum, 3 hr) was 2.3 Log10 CFU/mL of sputum. For the same molecule, the “Log10 CFU/mL of sputum” value ([6]; absence of sputum, 24 hr) was 2.3 Log10 CFU/mL of sputum, the “Log10 CFU/mL of sputum” value ([6]; presence of 10% sputum, 1 hr) was 3.9 Log10 CFU/mL of sputum and the “Log10 CFU/mL of sputum” value ([6]; presence of 10% sputum, 3 hr) was 3.6 Log10 CFU/mL of sputum. The “Log10 CFU/mL of sputum” value ([6]; presence of 10% sputum, 24 hr) was 2.3 Log10 CFU/mL of sputum, the “CFU reduction by 3 hours” value ([6]; time-kill) was 1.5 log10 and the “CFU reduction by 24 hours” value ([6]; time-kill) was greater than 3 log10. The “change in MIC over 28-day serial passage” value ([7]; P. aeruginosa (PA453)) was “No change”, the MIC ([7]; P. aeruginosa PA453, target organism of serial passage study) was 0.125 µg/mL and the “change in MIC over serial passage” value ([7]; P. aeruginosa strain CFS 1292, Day 28) was “no significant changes”. The “change in MIC over serial passage” value [8] was “no increase in MIC”, the MBEC50 [9] was 32 µg/mL and the MBEC90 [9] was 128 µg/mL. For the same molecule, the “MBEC Range” value [9] was 4 to 128 µg/mL, the “antibiofilm activity (MBEC) against P. aeruginosa” value ([10]; 2-hour treatments) was “highly active” and the MBEC50 ([10]; MDR and XDR P. aeruginosa (9)) was 2 µg/mL. For the same molecule, the MBEC90 ([10]; MDR and XDR P. aeruginosa (9)) was 4 µg/mL, the “MBEC Range” value ([10]; MDR and XDR P. aeruginosa (9)) was 1 to 4 µg/mL and the “Number of isolates at MBEC 1 μg/mL” value ([10]; MDR and XDR P. aeruginosa (9)) was 4. For the same molecule, the “Number of isolates at MBEC 2 μg/mL” value ([10]; MDR and XDR P. aeruginosa (9)) was 4, the “Number of isolates at MBEC 4 μg/mL” value ([10]; MDR and XDR P. aeruginosa (9)) was 1 and the MBEC50 [10, 13] was 1 µg/mL. The MBEC90 [10, 13] was 2 µg/mL and the “MBEC Range” value [10, 13] was 0.064-4 ^ μg/mL.
